Source: article PMC10136361, “Inhibition Analysis and High-Resolution Crystal Structure of Mus musculus Glutathione Transferase P1-1” (Biomolecules, 2023)

Target: the molecule itself
Assay: crystal structure; co-crystallised with 2.5 mM Nb-GSH, hanging drop vapor diffusion, 0.1 M Tris-HCl pH 8.0, PEG 6000 20% (w/v), 0.2 M calcium chloride; data to 1.28 Å at 100 K; two molecules in the asymmetric unit

B1: Mus musculus glutathione transferase P1-1 (enzyme, UniProt P19157 1-210, looked up)
chain: MPPYTIVYFPVRGRCEAMRMLLADQGQSWKEEVVTIDTWMQGLLKPTCLYGQLPKFEDGDLTLYQSNAILRHLGRSLGLYGKNQREAAQMDMVNDGVEDLRGKYVTLIYTNYENGKNDYVKALPGHLKPFETLLSQNQGGKAFIVGDQISFADYNLLDLLLIHQVLAPGCLDNFPLLSAYVARLSARPKIKAFLSSPEHVNRPINGNGKQ
notes: Glutathione S-transferase P1, Mus musculus, cloned from cDNA by PCR after GenBank BC061109.1; also called MmGSTP1-1; GSTP1-1 from Mus musculus
Q: Does B1 bind?
A: binds
